Results on 2 variants are retold here after publication PMC10665427, “The heat shock protein LarA activates the Lon protease in response to proteotoxic stress” (Nature Communications, 2023).

Sequences and labels used below:
B1: N-terminally 3xFLAG-tagged LarA [C. crescentus] / Lon, endogenous [C. crescentus (endogenous in WT cells)] (parent complex)
chain 1: MTPSTQHSRPLTSEAFAALGAPALVYVRPIKAAEILADAPEGVEDLDLSPDQTLYAVCRADGERLAVLIDRDTAIAAALAHELAPVSVH
chain 2: MSELRTLPVLPLRDIVVFPHMVVPLFVGRDKSVRALEEVMRGDKQILLVTQKNSADDDPAPGDIFEVGVLATVLQLLKLPDGTVKVLVEGKARAAVVSFTDQESYYEAQIGEVSEDDGAGPEAEALSRAVVEQFENYVKLNKKVPPEALASIPQIAEPGKLADSIAAHLSVKIGDKQNLLEIFDVVKRLEKVFALMEGEISVLQVEKKIRSRVKRQMEKTQREYYLNEQMKAIQRELGDPDDARDELIDLEKRIKKTKLSKEARTKAESELKKLRNMSPMSAESTVVRNYLDWLLSIPWGKAKTKKIDLVESEGILDADHYGLEKVKERILEYLAVQARTNSLKGPILCLVGPPGVGKTSLGKSIAKATGREFVRMSLGGVRDEAEIRGHRRTYIGSMPGKVVQSMKKAKTTNAFVLLDEIDKMGSDYRGDPASALLEVLDPSQNSTFGDHYLEVDYDLSQVMFVTTANSLNMPQPLLDRMEIIRIPGYTEDEKLEIAKRHILPKLAKDHGLKPAEFIVPDKAIRDLIRYYTREAGVRSLERELGALARKTVRDLAREKVASITIDDERLAKYAGVKKYRYGETDEVDQVGIVTGLAWTEFGGDILTIEAVKMPGKGRMQITGNLKDVMKESIAAANSYVRSRALQFGIKPPVFEKTDVHIHVPDGATPKDGPSAGIAMALAMVSVLTGIPIRKDIAMTGEITLRGRVTAIGGLKEKLLAALRSGVKTVLIPQENEKDLADVPQTVKDGLEIIPVSTVDEVLKHALTGPLTPVEWNEAEEPITTSAKKDDGDSDAMLTH

In the assay the parent is B1. Nature of the assay: co-immunoprecipitation (α-FLAG IP, anti-Lon immunoblot quantified); WT cells, Pxyl-3xFLAG-larA variants induced one hour with xylose prior to cell lysis and IP; n = 3; parent: 4.5; read off a plot.
Regarding chain 1 MTPSTQHSRPLTSEAFAALGAPALVYVRPIKAAEILADAPEGVEDLDLSPDQTLYAVCRADGERLAVLIDRDTAIAAALAHELAPVSDD [chain 1 V88D, chain 1 H89D], the response is ~1 relative Lon level (vs VC = 1).
The value for chain 1 MTPSTQHSRPLTSEAFAALGAPALVYVRPIKAAEILADAPEGVEDLDLSPDQTLYAVCRADGERLAVLIDRDTAIAAALAHELAPASAH [chain 1 V86A, chain 1 V88A] was ~1.7 relative Lon level (vs VC = 1).
